Data set [1] has as its target desmin (assembled into filaments, or immobilised on a sensor chip) (not stated (chicken gizzard desmin or recombinant human desmin prepared)) (UniProt P17661). Description: co-sedimentation; high-speed; filaments assembled at 0.2 mg ml^-1 with WT CRYAB at 1 : 1 molar ratio; 20 mM HEPES, 100 mM NaCl, 1 mM MgCl2, 1 mM DTT, pH 6.3; 23, 39 or 44°C.
Data set [2] deals with the molecule itself. Description: SEC; Superformance column packed with Fractogel EMD BioSEC, calibrated with protein standards; 20 mM Tris-HCl pH 7.4, 100 mM NaCl, room temperature; self-association into oligomers.
Data set [3] concerns the target T1, filaments of keratins 7 and 18 (human, UniProt P08729 1-469; P05783 1-430).
T1 construct: keratin 7, recombinant human; keratin 18, recombinant human; In vitro assembled keratin filaments; also called keratin filaments
T1 sequence (looked up) 1: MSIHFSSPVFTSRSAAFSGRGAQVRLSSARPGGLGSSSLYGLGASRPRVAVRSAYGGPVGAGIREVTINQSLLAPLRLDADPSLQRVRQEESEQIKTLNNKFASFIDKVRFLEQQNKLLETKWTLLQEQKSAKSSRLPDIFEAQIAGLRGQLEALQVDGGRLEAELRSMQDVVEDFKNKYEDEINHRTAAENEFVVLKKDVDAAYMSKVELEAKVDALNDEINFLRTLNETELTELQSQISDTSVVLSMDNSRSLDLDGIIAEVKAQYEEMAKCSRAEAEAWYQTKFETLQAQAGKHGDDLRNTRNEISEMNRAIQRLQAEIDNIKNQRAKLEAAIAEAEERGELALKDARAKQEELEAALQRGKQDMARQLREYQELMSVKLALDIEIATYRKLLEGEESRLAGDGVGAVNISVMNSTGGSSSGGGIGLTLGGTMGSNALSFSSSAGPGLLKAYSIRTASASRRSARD
T1 sequence (looked up) 2: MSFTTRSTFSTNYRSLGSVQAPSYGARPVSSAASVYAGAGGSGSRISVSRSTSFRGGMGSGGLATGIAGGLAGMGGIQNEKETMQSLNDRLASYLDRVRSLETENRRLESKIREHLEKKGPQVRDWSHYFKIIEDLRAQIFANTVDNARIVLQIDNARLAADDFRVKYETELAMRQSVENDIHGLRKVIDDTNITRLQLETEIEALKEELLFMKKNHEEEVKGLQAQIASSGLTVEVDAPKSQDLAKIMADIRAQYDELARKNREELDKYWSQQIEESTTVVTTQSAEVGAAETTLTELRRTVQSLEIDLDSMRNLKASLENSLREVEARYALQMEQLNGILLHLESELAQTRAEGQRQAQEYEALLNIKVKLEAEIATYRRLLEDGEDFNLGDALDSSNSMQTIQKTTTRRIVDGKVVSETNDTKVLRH
In words: co-sedimentation; filaments assembled with the sHSP (desmin : sHSP 1 : 1 molar ratio) at three temperatures (22, 37, 44°C named in the text); pellet and supernatant by SDS-PAGE, Coomassie Blue. The note with it: both partners purified.

Data set [4] has as its target T2, glial fibrillary acidic protein (GFAP) (human, UniProt P14136 1-432).
T2 construct: glial fibrillary acidic protein, recombinant human; Assembled into filaments for co-sedimentation and viscometry; immobilised on the chip for SPR; also called WT GFAP; GFAP filaments
Description: SPR; Biacore 3000; desmin, GFAP and vimentin immobilised on a CM5 chip; CRYAB injected at 20 g ml^-1 (so in the source) for 7 min at 37°C, then washed 7 min; 10 mM HEPES pH 7.4, 0.15 M NaCl, 3.4 mM EDTA, 0.005% P20; double referencing. The note with it: both partners purified.

T2 sequence (P14136 whole entry): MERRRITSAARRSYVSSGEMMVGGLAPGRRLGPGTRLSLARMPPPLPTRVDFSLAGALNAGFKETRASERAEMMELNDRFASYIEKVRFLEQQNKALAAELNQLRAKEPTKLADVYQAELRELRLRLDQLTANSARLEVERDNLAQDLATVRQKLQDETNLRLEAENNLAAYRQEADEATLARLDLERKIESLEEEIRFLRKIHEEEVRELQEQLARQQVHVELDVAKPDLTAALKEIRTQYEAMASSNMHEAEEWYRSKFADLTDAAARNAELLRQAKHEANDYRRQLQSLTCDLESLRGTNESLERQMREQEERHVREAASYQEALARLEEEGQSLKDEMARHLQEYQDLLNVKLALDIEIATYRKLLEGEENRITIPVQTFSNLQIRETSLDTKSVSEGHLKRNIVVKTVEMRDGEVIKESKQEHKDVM

As for “wild-type αB-crystallin (CRYAB, HSPB5) (from UniProt P02511 1-175) (natural protein)”, the percent of the total CRYAB co-sedimented (pH 6.3, 39°C to 44°C) in data set [1] was more than 35 per cent.

B1: wild-type αB-crystallin (CRYAB, HSPB5) (natural protein, human, UniProt P02511 1-175, looked up)
chain: MDIAIHHPWIRRPFFPFHSPSRLFDQFFGEHLLESDLFPTSTSLSPFYLRPPSFLRAPSWFDTGLSEMRLEKDRFSVNLDVKHFSPEELKVKVLGDVIEVHGKHEERQDEHGFISREFHRKYRIPADVDPLTITSSLSSDGVLTVNGPRKQVSGPERTIPITREEKPAVTAAPKK
notes: αB-crystallin (CRYAB, HSPB5), human; Polydisperse oligomer (apparent size about 520 kDa by SEC); also called WT CRYAB; WT αB-crystallin
Regarding B1, the binding result in data set [2] and in data set [3] was “binds” throughout.

B2: R120G αB-crystallin (R120G CRYAB) (natural protein, human, UniProt P02511 1-175, looked up)
chain: MDIAIHHPWIRRPFFPFHSPSRLFDQFFGEHLLESDLFPTSTSLSPFYLRPPSFLRAPSWFDTGLSEMRLEKDRFSVNLDVKHFSPEELKVKVLGDVIEVHGKHEERQDEHGFISREFHGKYRIPADVDPLTITSSLSSDGVLTVNGPRKQVSGPERTIPITREEKPAVTAAPKK
notes: αB-crystallin (CRYAB, HSPB5), human, with the disease-causing mutation R120G; Mutation found in a human family with desmin-related myopathy and cataract; Oligomer of apparent size 684 kDa by SEC; also called CRYAB R120G
On to B2, for which the binding result in data set [2], in data set [3] and in data set [4] was “binds” throughout.

These data come from paper PMC3638400 (Philosophical Transactions of the Royal Society B: …, 2013).
